# From publication PMC3742642 (Structure (London, England : 1993), 2013)
# Legend:
# SEC = target: the molecule itself; assay: SEC
# crystal structure = target: the molecule itself; assay: crystal structure
# cryo-EM structure = target: the molecule itself; assay: cryo-EM structure
protein,measurement,setting,value
"bacteriophage ϕ6 capsid protein P1, full length, C-terminal His6-tag (natural protein, UniProt P11126 1-769, looked up) MFNLKVKDLNGSARGLTQAFAIGELKNQLSVGALQLPLQFTRTFSASMTSELLWEVGKGNIDPVMYARLFFQYAQAGGALSVDELVNQFTEYHQSTACNPEIWRKLTAYITGSSNRAIKADAVGKVPPTAILEQLRTLAPSEHELFHHITTDFVCHVLSPLGFILPDAAYVYRVGRTATYPNFYALVDCVRASDLRRMLTALSSVDSKMLQATFKAKGALAPALISQHLANAATTAFERSRGNFDANAVVSSVLTILGRLWSPSTPKELDPSARLRNTNGIDQLRSNLALFIAYQDMVKQRGRAEVIFSDEELSSTIIPWFIEAMSEVSPFKLRPINETTSYIGQTSAIDHMGQPSHVVVYEDWQFAKEITAFTPVKLANNSNQRFLDVEPGISDRMSATLAPIGNTFAVSAFVKNRTAVYEAVSQRGTVNSNGAEMTLGFPSVVERDYALDRDPMVAIAALRTGIVDESLEARASNDLKRSMFNYYAAVMHYAVAHNPEVVVSEHQGVAAEQGSLYLVWNVRTELRIPVGYNAIEGGSIRTPEPLEAIAYNKPIQPSEVLQAKVLDLANHTTSIHIWPWHEASTEFAYEDAYSVTIRNKRYTAEVKEFELLGLGQRRERVRILKPTVAHAIIQMWYSWFVEDDRTLAAARRTSRDDAEKLAIDGRRMQNAVTLLRKIEMIGTTGIGASAVHLAQSRIVDQMAGRGLIDDSSDLHVGINRHRIRIWAGLAVLQMMGLLSRSEAEALTKVLGDSNALGMVVATTDIDPSL",stoichiometry N,SEC,2
same,stoichiometry N,crystal structure,5
"bacteriophage ϕ6 capsid protein P1, wild type, in P1247 procapsids (natural protein) FNLKVKDLNGSARGLTQAFAIGELKNQLSVGALQLPLQFTRTFSASMTSELLWEVGKGNIDPVMYARLFFQYAQAGGALSVDELVNQFTEYHQSTACNPEIWRKLTAYITGSSNRAIKADAVGKVPPTAILEQLRTLAPSEHELFHHITTDFVCHVLSPLGFILPDAAYVYRVGRTATYPNFYALVDCVRASDLRRMLTALSSVDSKMLQATFKAKGALAPALISQHLANAATTAFERSRGNFDANAVVSSVLTILGRLWSPSTPKELDPSARLRNTNGIDQLRSNLALFIAYQDMVKQRGRAEVIFSDEELSSTIIPWFIEAMSEVSPFKLRPINETTSYIGQTSAIDHMGQPSHVVVYEDWQFAKEITAFTPVKLANNSNQRFLDVEPGISDRMSATLAPIGNTFAVSAFVKNRTAVYEAVSQRGTVNSNGAEMTLGFPSVVERDYALDRDPMVAIAALRTGIVDESLEARASNDLKRSMFNYYAAVMHYAVAHNPEVVVSEHQGVAAEQGSLYLVWNVRTELRIPVGYNAIEGGSIRTPEPLEAIAYNKPIQPSEVLQAKVLDLANHTTSIHIWPWHEASTEFAYEDAYSVTIRNKRYTAEVKEFELLGLGQRRERVRILKPTVAHAIIQMWYSWFVEDDRTLAAARRTSRDDAEKLAIDGRRMQNAVTLLRKIEMIGTTGIGASAVHLAQSRIVDQMAGRGLIDDSSDLHVGINRHRIRIWAGLAVLQMMGLLSRSEAEALTKVLGDSNALGMVVATTDIDPSL",stoichiometry N,cryo-EM structure,120
